In the PETadex activity labels (doi:10.1042/bj20021862):
Where a chain is given by its changes, count along the chain named.

B1: unnamed (protein)
chain: MRPPWYPLHTPSLAFPLLFLLLSLLGGGARAEGREDPQLLVRVRGGQLRGIRLKAPGGPVSAFLGIPFAEPPVGSRRFMPPEPKRPWSGVLDATTFQNVCYQYVDTLYPGFEGTEMWNPNRELSEDCLYLNVWTPYPRPASPTPVLIWIYGGGFYSGAASLDVYDGRFLAQVEGAVLVSMNYRVGTFGFLALPGSREAPGNVGLLDQRLALQWVQENIAAFGGDPMSVTLFGESAGAASVGMHILSLPSRSLFHRAVLQSGTPNGPWATVSAGEARRRATLLARLVGCPPGGAGGNDTELIACLRTRPAQDLVDHEWHVLPQESILRISFVPVVDGDFLSDTPEALINTGDFQDLQVLVGVVKDEGSAFLVYGVPGFSKDNESLISRAQFLAGVRIGVPQASDLAAEAVVLHYTDWLHPEDPTHLRDAMSAVVGDHNVVCPVAQLAGRLAAQGARVYAYIFEHRASTLTWPLWMGVPHGYEIEFIFGLPLDPSLNYTTEERIFAQRLMKYWTNFARTGDPNDPRDSKSPQWPPYTTAAQQYVSLNLKPLEVRRGLRAQTCAFWNRFLPKLLSATDTLDEAERQWKAEFHRWSSYMVHWKNQFDHYSKQERCSDL
B2: unnamed (protein)
chain: B1 chain with L326A, I328F
B3: unnamed (protein)
chain: B1 chain with I328F, F369A
B4: unnamed (protein)
chain: B1 chain with L326F, I328F, F369A

Substrate: Acetylcholine
Conditions: pH 7; 22 °C

Row | Protein | Km [µM] | kcat [s⁻¹] | kcat/Km [M⁻¹ s⁻¹]
1 | B1 | 69 | 250 | 3.62e+06
2 | B2 | 76 | 333 | 4.39e+06
3 | B3 | 150 | 283 | 1.89e+06
4 | B4 | 150 | 650 | 4.33e+06
